Measurements from patent US20120316071A1 (published 2012).

B1: Fab VH5-51_IGHD5-18*01>3_IGHJ4*01 G100R & V3-4_IGLJ1*01 (Fab, V domains shown)
VH: EVQLVQSGAEVKKPGESLKISCKGSGYSFTSYWIGWVRQMPGKGLEWMGIIYPGDSDTRYSPSFQGQVTISADKSISTAYLQWSSLKASDTAMYYCARRRYSYGYDYFDYWGQGTLVTVSS
VL: QTVVTQEPSFSVSPGGTVTLTCGLSSGSVSTSYYPSWYQQTPGQAPRTLIYSTNTRSSGVPDRFSGSILGNKAALTITGAQADDESDYYCVLYMGSGISYVFGTGTKVTVL
notes: Fab; VH-CH1 (His6/Flag, Plasmid A) and VL-lambda CL (Plasmid E)
B2: Fab VH5-51_IGHD5-18*01>3_IGHJ4*01 G104K & V3-4_IGLJ1*01 (Fab, V domains shown)
VH: EVQLVQSGAEVKKPGESLKISCKGSGYSFTSYWIGWVRQMPGKGLEWMGIIYPGDSDTRYSPSFQGQVTISADKSISTAYLQWSSLKASDTAMYYCARRGYSYKYDYFDYWGQGTLVTVSS
VL: QTVVTQEPSFSVSPGGTVTLTCGLSSGSVSTSYYPSWYQQTPGQAPRTLIYSTNTRSSGVPDRFSGSILGNKAALTITGAQADDESDYYCVLYMGSGISYVFGTGTKVTVL
notes: as for B1
B3: Fab VH5-51_IGHD5-18*01>3_IGHJ4*01 G100K & V3-4_IGLJ1*01 (Fab, V domains shown)
VH: EVQLVQSGAEVKKPGESLKISCKGSGYSFTSYWIGWVRQMPGKGLEWMGIIYPGDSDTRYSPSFQGQVTISADKSISTAYLQWSSLKASDTAMYYCARRKYSYGYDYFDYWGQGTLVTVSS
VL: QTVVTQEPSFSVSPGGTVTLTCGLSSGSVSTSYYPSWYQQTPGQAPRTLIYSTNTRSSGVPDRFSGSILGNKAALTITGAQADDESDYYCVLYMGSGISYVFGTGTKVTVL
notes: as for B1
B4: Fab VH5-51_IGHD5-18*01>3_IGHJ4*01 G100K/G104T (H:KT) & V3-4_IGLJ1*01 G97A (Fab, V domains shown)
VH: EVQLVQSGAEVKKPGESLKISCKGSGYSFTSYWIGWVRQMPGKGLEWMGIIYPGDSDTRYSPSFQGQVTISADKSISTAYLQWSSLKASDTAMYYCARRKYSYTYDYFDYWGQGTLVTVSS
VL: QTVVTQEPSFSVSPGGTVTLTCGLSSGSVSTSYYPSWYQQTPGQAPRTLIYSTNTRSSGVPDRFSGSILGNKAALTITGAQADDESDYYCVLYMGSAISYVFGTGTKVTVL
notes: Fab; Expressed from Plasmid A (CH1, His6 and Flag tags) and Plasmid E (lambda CL); also called KT & G97A
B5: Fab VH5-51_IGHD5-18*01>3_IGHJ4*01 G100D & V3-4_IGLJ1*01 (Fab, V domains shown)
VH: EVQLVQSGAEVKKPGESLKISCKGSGYSFTSYWIGWVRQMPGKGLEWMGIIYPGDSDTRYSPSFQGQVTISADKSISTAYLQWSSLKASDTAMYYCARRDYSYGYDYFDYWGQGTLVTVSS
VL: QTVVTQEPSFSVSPGGTVTLTCGLSSGSVSTSYYPSWYQQTPGQAPRTLIYSTNTRSSGVPDRFSGSILGNKAALTITGAQADDESDYYCVLYMGSGISYVFGTGTKVTVL
notes: as for B1
B6: Fab VH5-51_IGHD5-18*01>3_IGHJ4*01 G104M & V3-4_IGLJ1*01 (Fab, V domains shown)
VH: EVQLVQSGAEVKKPGESLKISCKGSGYSFTSYWIGWVRQMPGKGLEWMGIIYPGDSDTRYSPSFQGQVTISADKSISTAYLQWSSLKASDTAMYYCARRGYSYMYDYFDYWGQGTLVTVSS
VL: QTVVTQEPSFSVSPGGTVTLTCGLSSGSVSTSYYPSWYQQTPGQAPRTLIYSTNTRSSGVPDRFSGSILGNKAALTITGAQADDESDYYCVLYMGSGISYVFGTGTKVTVL
notes: as for B1
B7: Fab VH5-51_IGHD5-18*01>3_IGHJ4*01 G100T & V3-4_IGLJ1*01 (Fab, V domains shown)
VH: EVQLVQSGAEVKKPGESLKISCKGSGYSFTSYWIGWVRQMPGKGLEWMGIIYPGDSDTRYSPSFQGQVTISADKSISTAYLQWSSLKASDTAMYYCARRTYSYGYDYFDYWGQGTLVTVSS
VL: QTVVTQEPSFSVSPGGTVTLTCGLSSGSVSTSYYPSWYQQTPGQAPRTLIYSTNTRSSGVPDRFSGSILGNKAALTITGAQADDESDYYCVLYMGSGISYVFGTGTKVTVL
notes: as for B1
B8: Fab VH5-51_IGHD5-18*01>3_IGHJ4*01 G104A & V3-4_IGLJ1*01 (Fab, V domains shown)
VH: EVQLVQSGAEVKKPGESLKISCKGSGYSFTSYWIGWVRQMPGKGLEWMGIIYPGDSDTRYSPSFQGQVTISADKSISTAYLQWSSLKASDTAMYYCARRGYSYAYDYFDYWGQGTLVTVSS
VL: QTVVTQEPSFSVSPGGTVTLTCGLSSGSVSTSYYPSWYQQTPGQAPRTLIYSTNTRSSGVPDRFSGSILGNKAALTITGAQADDESDYYCVLYMGSGISYVFGTGTKVTVL
notes: as for B1

Tests used:
Recombinant Human DLL4 [1] = target: T1, Recombinant Human DLL4 (human, UniProt Q9NR61 27-524); assay: ECL (MSD) 96-well plate assay, DLL4 coated at 15 ug/mL, Fab 0.02 uM; signal over blank
T1 construct: Bought recombinant human DLL4 (R&D Systems Cat#1506-D4/CF), coated on the plate; also called delta-like protein 4; rHuman DLL4

Recombinant Human DLL4 [2] = target: T1, Recombinant Human DLL4; assay: ECL (MSD) 96-well plate assay, DLL4 coated at 30 ug/mL, Fab 0.1 uM; signal over blank
[3] = target: T2, Recombinant Human DLL4 (R&D Systems Cat#1506-D4/CF) (human, UniProt Q9NR61 27-524); assay: ECL multispot (MSD) binding assay, antigen spotted on plate, Fab 0.04 uM;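 further: purified Fab incubated 1 h at 20 °C on antigen spots, detected via TAG-labelled antibody, ECL read against each well's blank, with signal-to-blank of at least 4 scored as binder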
T2 construct: Bought recombinant protein; also called delta-like protein 4; rHuman DLL4

[4] = target: T3, rHuman P-Cadherin/Fc Chimera, CF (R&D Systems Cat#861-PC) (human, UniProt P22223 108-654); assay: as above
T3 construct: Bought recombinant protein; Fc part of the bought chimera not given

| Binder | Signal/Noise (Recombinant Human DLL4 [1]) | Signal/Noise (Recombinant Human DLL4 [2]) | ECL signal [3] | ECL signal [4] |
| --- | --- | --- | --- | --- |
| B1 | 39.9 | 90.6 | – | – |
| B2 | 9.1 | 17.6 | – | – |
| B3 | 72.6 | 134 | – | – |
| B4 | – | – | 14900 | 474 |
| B5 | 2 | 5.8 | – | – |
| B6 | 12.3 | 29.1 | – | – |
| B7 | 11 | 26 | – | – |
| B8 | 2.6 | 6.7 | – | – |
